Source: patent US20260217795A1 (NANJING GENSCRIPT BIOTECH, published 2026)

What was measured:
Experiment in all cases: indirect ELISA, VLP coated at 1 ug/mL, antibody in 3-fold dilutions from 1 ug/mL
[1] = target: T1, AAV2 virus-like particle (VLP) (adeno-associated virus 2, UniProt P03135 1-735; P03135 1-598; P03135 1-533)
T1 construct: VLP self-assembled from VP1, VP2 and VP3 expressed in 293T cells; coated on ELISA plates; also called VLP of AAV2

[2] = target: T2, AAVDJ virus-like particle (VLP) (adeno-associated virus DJ)
T2 construct: VLP self-assembled from VP1, VP2 and VP3 expressed in 293T cells; coated on ELISA plates; also called VLP of AAVDJ

[3] = target: T3, recombinant rh.1-type AAV virus-like particles (AAVrh.1 VLP) (adeno-associated virus rh.1 (isolated …))
T3 construct: The immunogen; VLP self-assembled from VP1, VP2 and VP3 expressed in 293T cells; coated on ELISA plates; also called rh.1-serotype AAV
T3 chain 1: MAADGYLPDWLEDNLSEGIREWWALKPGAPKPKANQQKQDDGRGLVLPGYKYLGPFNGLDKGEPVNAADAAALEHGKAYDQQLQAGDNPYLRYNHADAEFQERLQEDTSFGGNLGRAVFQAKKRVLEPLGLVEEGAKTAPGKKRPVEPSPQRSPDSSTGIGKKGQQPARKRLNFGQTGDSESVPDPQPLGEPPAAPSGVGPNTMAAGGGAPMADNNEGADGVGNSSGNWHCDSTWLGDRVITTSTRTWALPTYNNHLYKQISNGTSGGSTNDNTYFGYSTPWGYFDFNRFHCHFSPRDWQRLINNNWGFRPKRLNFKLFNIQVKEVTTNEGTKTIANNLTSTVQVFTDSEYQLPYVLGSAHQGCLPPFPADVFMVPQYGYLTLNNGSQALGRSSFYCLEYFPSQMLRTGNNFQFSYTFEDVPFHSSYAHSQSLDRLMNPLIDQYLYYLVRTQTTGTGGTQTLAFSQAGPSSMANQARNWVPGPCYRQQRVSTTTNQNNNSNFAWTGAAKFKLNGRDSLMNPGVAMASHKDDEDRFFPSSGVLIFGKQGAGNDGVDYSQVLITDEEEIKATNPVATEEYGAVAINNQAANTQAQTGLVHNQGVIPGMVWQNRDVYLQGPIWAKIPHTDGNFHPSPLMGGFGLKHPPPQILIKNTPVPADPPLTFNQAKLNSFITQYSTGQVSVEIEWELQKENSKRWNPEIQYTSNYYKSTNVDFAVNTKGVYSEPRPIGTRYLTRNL
T3 chain 2: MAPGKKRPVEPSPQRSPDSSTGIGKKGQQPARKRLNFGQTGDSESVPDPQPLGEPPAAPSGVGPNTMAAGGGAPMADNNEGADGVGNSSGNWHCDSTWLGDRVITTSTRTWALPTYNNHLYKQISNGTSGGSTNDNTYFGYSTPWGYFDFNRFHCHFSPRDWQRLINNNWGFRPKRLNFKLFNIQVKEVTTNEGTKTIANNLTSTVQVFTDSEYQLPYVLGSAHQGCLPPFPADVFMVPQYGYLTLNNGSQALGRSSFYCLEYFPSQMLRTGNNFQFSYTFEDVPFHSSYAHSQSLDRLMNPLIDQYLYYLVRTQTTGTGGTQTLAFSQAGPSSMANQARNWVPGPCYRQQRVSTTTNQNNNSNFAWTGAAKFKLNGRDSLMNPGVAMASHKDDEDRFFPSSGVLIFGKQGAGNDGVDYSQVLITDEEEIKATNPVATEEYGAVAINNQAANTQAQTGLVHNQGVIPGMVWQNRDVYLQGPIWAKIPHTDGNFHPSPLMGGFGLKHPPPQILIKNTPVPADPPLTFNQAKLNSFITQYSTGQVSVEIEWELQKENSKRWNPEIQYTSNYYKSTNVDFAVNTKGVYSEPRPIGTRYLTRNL
T3 chain 3: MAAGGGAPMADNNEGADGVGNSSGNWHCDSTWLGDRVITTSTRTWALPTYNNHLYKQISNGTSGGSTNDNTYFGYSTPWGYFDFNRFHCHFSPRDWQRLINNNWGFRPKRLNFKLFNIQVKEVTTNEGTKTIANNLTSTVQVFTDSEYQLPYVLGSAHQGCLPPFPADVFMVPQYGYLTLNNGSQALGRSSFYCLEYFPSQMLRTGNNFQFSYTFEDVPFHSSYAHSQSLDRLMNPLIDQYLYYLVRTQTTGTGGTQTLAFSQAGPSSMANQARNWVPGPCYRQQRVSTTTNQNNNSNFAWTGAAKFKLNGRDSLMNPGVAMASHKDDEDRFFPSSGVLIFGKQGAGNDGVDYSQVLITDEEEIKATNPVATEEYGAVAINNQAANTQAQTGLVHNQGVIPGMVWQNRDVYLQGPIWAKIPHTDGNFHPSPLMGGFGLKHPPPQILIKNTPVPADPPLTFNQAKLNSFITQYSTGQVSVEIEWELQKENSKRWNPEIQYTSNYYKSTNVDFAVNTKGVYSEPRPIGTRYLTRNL

[4] = target: T4, AAV1 virus-like particle (VLP) (adeno-associated virus 1)
T4 construct: VLP self-assembled from VP1, VP2 and VP3 expressed in 293T cells; coated on ELISA plates; also called VLP of AAV1

[5] = target: T5, AAV6 virus-like particle (VLP) (adeno-associated virus 6)
T5 construct: VLP self-assembled from VP1, VP2 and VP3 expressed in 293T cells; coated on ELISA plates; also called VLP of AAV6

[6] = target: T6, AAV5 virus-like particle (VLP) (adeno-associated virus 5)
T6 construct: VLP self-assembled from VP1, VP2 and VP3 expressed in 293T cells; coated on ELISA plates; also called VLP of AAV5

[7] = target: T7, AAV9 virus-like particle (VLP) (adeno-associated virus 9)
T7 construct: VLP self-assembled from VP1, VP2 and VP3 expressed in 293T cells; coated on ELISA plates; also called VLP of AAV9

[8] = target: T8, AAV8 virus-like particle (VLP) (adeno-associated virus 8)
T8 construct: VLP self-assembled from VP1, VP2 and VP3 expressed in 293T cells; coated on ELISA plates; also called VLP of AAV8
T8 VP1: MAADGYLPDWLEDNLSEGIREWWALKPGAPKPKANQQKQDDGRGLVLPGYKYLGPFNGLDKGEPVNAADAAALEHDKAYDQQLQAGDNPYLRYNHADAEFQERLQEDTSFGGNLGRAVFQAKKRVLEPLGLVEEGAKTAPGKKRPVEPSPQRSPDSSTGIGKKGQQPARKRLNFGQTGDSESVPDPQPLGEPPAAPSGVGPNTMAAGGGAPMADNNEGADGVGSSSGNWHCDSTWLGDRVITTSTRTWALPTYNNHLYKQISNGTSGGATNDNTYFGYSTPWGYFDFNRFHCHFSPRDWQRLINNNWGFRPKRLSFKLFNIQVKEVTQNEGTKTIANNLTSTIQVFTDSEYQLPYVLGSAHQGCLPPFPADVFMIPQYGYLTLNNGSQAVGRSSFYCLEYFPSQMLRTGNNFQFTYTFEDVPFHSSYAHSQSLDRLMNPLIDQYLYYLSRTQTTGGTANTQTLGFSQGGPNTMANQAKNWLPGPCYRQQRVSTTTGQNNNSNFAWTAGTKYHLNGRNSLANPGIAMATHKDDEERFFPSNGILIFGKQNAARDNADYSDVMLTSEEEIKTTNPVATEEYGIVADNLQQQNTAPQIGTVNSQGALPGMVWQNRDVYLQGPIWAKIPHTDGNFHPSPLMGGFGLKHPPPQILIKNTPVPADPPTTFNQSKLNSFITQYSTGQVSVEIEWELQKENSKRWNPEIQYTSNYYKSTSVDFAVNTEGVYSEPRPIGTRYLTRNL

Binder | EC50 [1] | EC50 [2] | EC50 [3] | EC50 [4] | EC50 [5] | EC50 [6] | EC50 [7] | EC50 [8]
24F7-1 monoclonal antibody (antibody, V domains shown, Rabbit monoclonal antibody, made recombinantly in ExpiCHO-S cells, purified on protein A as IgG and detected with anti-rabbit IgG (Fc-specific); also called clone 24F7-1) VH: QSLRESEGGLFKPADTLTLTCTVSGFSITAYNVGWVRQAPGKGLEWIGVIDISGATFYATWAKSRSTITRDTSLNTVTLKMTSLTAADTATYFCTRDPAFIWGPGTLVTVSS VL: DVVMTQTPASVEAAVGGTVTIKCQASQSVSSYLAWYQQKPGQPPKLLIYRASTLASGVPSRFKGSGSGTEFTLTISDLECADAATYYCQSYVYSNVLTYFNAFGGGTGVVVK | 0.51 ng/mL | 0.5 ng/mL | 0.93 ng/mL | 0.79 ng/mL | 0.61 ng/mL | – | – | –
5G4-1 monoclonal antibody (antibody, V domains shown, Rabbit monoclonal antibody, made recombinantly in ExpiCHO-S cells, purified on protein A as IgG and detected with anti-rabbit IgG (Fc-specific); also called clone 5G4-1) VH: QSVKESEGGLFKPADTLSLTCTVSGFSLNNNDMSWVRQAPGNGLEYIGVMSSGGRLYAATWAKSRFTITRNTNLGTVTLKLTSLTAADTATYFCARGSPSSNRGIDIWGPGTLVTVSS VL: LTQTPSSVSAPVGGTVSINCQSDKSVYADNYLSWYQQTPGQPPKLLIYKASTLASGIPSRFKGSGSGTQFTLAISDVQCDDAATYYCAGGYSGNSDNGFGGGTEVVVR | 0.94 ng/mL | 1.12 ng/mL | 0.51 ng/mL | 1.03 ng/mL | 0.64 ng/mL | 1.16 ng/mL | 0.64 ng/mL | 1 ng/mL
